Reference: the DeepSol protein solubility set

assay: soluble on expression in E. coli; label from the status in PepcDB or PDB records

| Sequence | soluble on expression in E. coli |
| --- | --- |
| MGSDKIHHHHHHVRVLAIRHVEIEDLGMMEDIFREKNWSFDYLDTPKGEKLERPLEEYSLVVLLGGYMGAYEEEKYPFLKYEFQLIEEILKKEIPFLGICLGSQMLAKVLGASVYRGKNGEEIGWYFVEKVSDNKFFREFPDRLRVFQWHGDTFDLPRRATRVFTSEKYENQGFVYGKAVGLQFHIEVGARTMKRWIEAYKDELEKKKIDPRLLLETAEREEKVLKGLLRSLLERMVES | soluble |
| MTLSRFAYNGQRCPSSHNILDNSKIISEDCRKELTELFHHYYPIEIDPHRTIKEKLPHMVQWWSKAHSLLCQQRIQKVQIAQVVGESTAMLREGYKTFFDTLYQNNIPLFIFSAGIGDILEEIIRQMKVFHPNIHIVSNYMDFSEDGFLKGFKGQLIHTYNKNSSVCENSSYFQQLQNKTNIILLGDSIGDLTMADGVPGVQNILKIGFLNDKVEERRERYMDSYDIVLEKDETLDVVNGLLRHILYQGDCVELQGS | soluble |
| MSSQIRGSKQHEDVDPVTIKKIEEAYVMLNGPDGAKCSSLLKKNLTKDVIEKLKTKSTKLGANLYDCIRSGVYCLDALVGVYAPDAEAYTLFAPLFDKIIEDYHGLGPDQKQPPVDLGEGKTKEFPPLDPKGKYIKSTRIRCGRSLNGYQFNPCLTEDNYLEMEEKVKKAFSEFSDEELKGTYYPLDGMSKDTQNQLIADHFLFKEGDRHLQYANACNFWPKGRGIFHNNKKTFLIWVNEEDHLRIISMQEGSDVGAVLERLIKGVRGIEKQVQFSRDDRLGWLTFCPTNLGSTVRASVHIALPKLSAREDFKQICDKLDLQLRGIHGEHSESEGGVYDISNRARLGLSEYEAVKKMYDGVKNLIEMEEKET | not soluble |
| VGFAPELYCGLENCYDVLEVNREEFDKQKLAKAYRALARKHHPDRVKNKEEKLLAEERFRVIATAYETLKDDEAKTNYDYYLDHPDQRFYNYYQYYRLRAAPKVDL | soluble |
| MPEIITPIITPFTKDNRIDKEKLKIHAENLIRKGIDKLFVNGTTGLGPSLSPEEKLENLKAVYDVTNKIIFQVGGLNLDDAIRLAKLSKDFDIVGIASYAPYYYPRMSEKHLVKYFKTLCEVSPHPVYLYNYPTATGKDIDAKVAKEIGCFTGVKDTIENIIHTLDYKRLNPNMLVYSGSDMLIATVASTGLDGNVAAGSNYLPEVTVTIKKLAMERKIDEALKLQFLHDEVIEASRIFGSLSSNYVLTKYFQGYDLGYPRPPIFPLDDEEERQLIKKVEGIRAKLVELKILKE | soluble |
| MEPLMNQSLHICGCCKRELPHEAFYTNKRTGTLDNYCKECRKANTRKRRDLRRCTSFENKPVSYPVITEVKDPALRMLLILHARQVVAESISRKQEKEKLNTLWEE | not soluble |
| MSFDIAKYPTLALVDSTQELRLLPKESLPKLCDELRRYLLDSVSRSSGHFASGLGTVELTVALHYVYNTPFDQLIWDVGHQAYPHKILTGRRDKIGTIRQKGGLHPFPWRGESEYDVLSVGHSSTSISAGIGIAVAAEKEGKNRRTVCVIGDGAITAGMAFEAMNHAGDIRPDMLVVLNDNEMSISENVGALNNHLAQLLSGKLYSSLREGGKKVFSGVPPIKELLKRTEEHIKGMVVPGTLFEELGFNYIGPVDGHDVLGLITTLKNMRDLKGPQFLHIMTKKGRGYEPAEKDPITFHAVPKFDPSSGCLPKSSGGLPSYSKIFGDWLCETAAKDNKLMAITPAMREGSGMVEFSRKFPDRYFDVAIAEQHAVTFAAGLAIGGYKPIVAIYSTFLQRAYDQVLHDVAIQKLPVLFAIDRAGIVGADGQTHQGAFDLSYLRCIPEMVIMTPSDENECRQMLYTGYHYNDGPSAVRYPRGNAVGVELTPLEKLPIGKGIVKRRGEKLAILNFGTLMPEAAKVAESLNATLVDMRFVKPLDETLILEMAASHEALVTVEENAIMGGAGSGVNEVLMAHRKPVPVLNIGLPDFFIPQGTQEEMRAELGLDAAGMEAKIKAWLA | not soluble |
| MGILKSLFTLGKSFVAQAEEAIDEAQGVRMLEQHIRDAKAELDKAGKSRVDLLARVKLSHDKLNDLRERKASLETRALAAMSKNVDAALLNEVAEEIARLENAILAEEQVLTNLEASRDAVEKAVTATGQRIAQFEQQLEVVKATEAMQRAQQAVTTSTVGAASNVSTAAESLKRLQTRQAERQARLDAAAQLEKVADGRDLDEKLAQAGIGATNKSNAQGVLARLQRQQGELEHHHHHH | not soluble |
| MIGYQIYVRSFRDGNLDGVGDFRGLKNAVSYLKELGIDFVWLMPVFSSISFHGYDVVDFYSFKAEYGSEREFKEMIEAFHDSGIKVVLDLPIHHTGFLHTWFQKALKGDPHYRDYYVWANKETDLDERREWDGEKIWHPLEDGRFYRGLFGPFSPDLNYDNPQVFDEMKRLVLHLLDMGVDGFRFDAAKHMRDTIEQNVRFWKYFLSDLKGIFLAEIWAEARMVDEHGRIFGYMLNFDTSHCIKEAVWKENTRVLIESIERAVIAKDYLPVNFTSNHDMSRLASFEGGFSKEKIKLSISILFTLPGVPLVFYGDELGMKGVYQKPNTEVVLDPFPWNESMCVEGQTFWKWPAYNGPFSGISVEYQKRDPDSILSHTLGWTRFRKENQWIDRAKLEFLCKEDKFLVYRLYDDQHSLKVFHNLSGEEVVFEGVKMKPYKTEVV | soluble |
| MSLRKLGPVTIDPRRHDAVLFDTTLDATQELVRQLQEVGVGTGVFGSGLDVPIVAAGRLAVRPGRCVVVSAHSAGVTAARESGFALIIGVDRTGCRDALRRDGADTVVTDLSEVSVRTGDRRMSQLPDALQALGLADGLVARQPAVFFDFDGTLSDIVEDPDAAWLAPGALEALQKLAARCPIAVLSGRDLADVTQRVGLPGIWYAGSHGFELTAPDGTHHQNDAAAAAIPVLKQAAAELRQQLGPFPGVVVEHKRFGVAVHYRNAARDRVGEVAAAVRTAEQRHALRVTTGREVIELRPDVDWDKGKTLLWVLDHLPHSGSAPLVPIYLGDDITDEDAFDVVGPHGVPIVVRHTDDGDRATAALFALDSPARVAEFTDRLARQLREAPEGHHHHHH | soluble |
| MAHHHHHHMRRTAFSLMIVPPESHRYAKATFHEGVHRQAPGDSTPWRDVASPLNRFKMWWLAPAAKGTMTAAWCMTIVMGAYCFSIQQDAKGTYLLNNVLLRTLHEEAMRADANQERANELQEYLKQRLEKLEAGGKAASRNMGGDAVKEGLINHELEISRERVRSDSIHQRNQQLVDELLKVRQELAVTRKKHSAALSEIDKLQKLLKACT | not soluble |
| MDNSSQSKPSSSSSSHSPSPAAITPTQRTTRDSGLCSTIDIPEIQAQCIDNLNSHYLGKGTYGLVEKTRYRKTRQDDFRPAAIKYSSQLHMATLIREAKVMWDLRNHPNIIKIYGLYKSPRNGQGVVMEYMDCGSMADLLYDRTHINYTIDHVASWMFQLSSAVDFFHSNSQVHRDLKLQNMLLSDRYRTMKLCDFGTFTSMHQSMTSNRGTPITMAPEVFRCEQYNMKSDIYSIGIIMWQIIARNHPYRRDLSVPGLLYNVATANLRPQELECNPILSEFYKKCWNDNADIRPTSSECVEYFTLLKDEYPNGSVPLSDSSTNGPAETPPPHAHRPTMLGTSSGSGIGSNNRTPTASKLLNPQQPGQGHRRNRSETFVVQPDLPYPTVPGEAGASRIPKSQSEAKNFRDRAKSEQRQPHRDARPPPPFEHRRDSNDEEKHAVFMNICSNEETRPIDPDTRDEKSLEIFHQHCDNNKQYADAWVIKKEVMRAKHELIAQWPQHDHTVELLERKYYLEQEIARYRDIQDDNYFSTERM | not soluble |
| MSPTTDRIAVVGGSISGLTAALMLRDAGVDVDVYERSPQPLSGFGTGIVVQPELVHYLLEQGVELDSISVPSSSMEYVDALTGERVGSVPADWRFTSYDSIYGGLYELFGPERYHTSKCLVGLSQDSETVQMRFSDGTKAEANWVIGADGGASVVRKRLLGIEPTYAGYVTWRGVLQPGEVADDVWNYFNDKFTYGLLDDGHLIAYPIPGRENAESPRLNFQWYWNVAEGPDLDELMTDVRGIRLPTSVHNNSLNPHNLRQFHSKGESLFKPFRDLVLNASSPFVTVVADATVDRMVHGRVLLIGDAAVTPRPHAAAGGAKASDDARTLAEVFTKNHDLRGSLQSWETRQLQQGHAYLNKVKKMASRLQHGGSFEPGNPAFAFGLPKVDEPSVVTNS | soluble |
| MGVANDSSPEYRWMSPHRLSDTVILGDCLYFNNIMSQLDLHQNWAPSVRLLNYFKNFNKETLLKIEENDYINSSFFQQKDKRFYPINDDFYHISTGGYGIVFKIDNYVVKFVFEATKLYSPMETTAEFTVPKFLYNNLKGDEKKLIVCAWAMGLNYKLTFLHTLYKRVLHMLLLLIQTMDGQELSLRYSSKVFLKAFNERKDSIKFVKLLSHFYPAVINSNINVINYFNRMFHFFEHEKRTNYEYERGNIIIFPLALYSADKVDTELAIKLGFKSLVQYIKFIFLQMSLLYIKIYELPCCDNFLHADLKPDNILLFDSNEPIIIHLKNKKFVFNERIKSALNDFDFSQVAGIINKKIKNNFKVEHNWYYDFHFFVHTLLKTYPEIEKDIEFSTALEEFIMCTKTDCDKYRLKVSILHPISFLEKFIMRDIFSDWINGGN | not soluble |
| MSLKTFTLPASVLFCFLLLIQGLGAAPPGRPDVFPPPLSSEHNGQVAEDAVSRPKDDGVPEVRAARNPEPQDQGELFQGVDPRALASVLLQALDRPASPPSVPGGSQQGTPEEAAEALMTESVRSQTHSLPAPEIQAPAVAPPRPQTQDRDPEEDDRSEEMEALASLLQELRDFSPSNAKRQQETAAAETETRTHTLTRVNLESPGPERVWRASWGEFQARVPERAPLPPPVPSQFQARMSESAPLPETHQFGEGVSSPKTHLGETLTPLSKAYQSLGGPFPKVRRLEGSFLGGSEAGERLLQQGLAQVEAGRRQAEATRQAAAQEERLADLASDLLLQYLLQGGARQRDLGGRELQETQQERENEREEEAEQERRGGGEDDVGEEDEEAAEAEAEAEEAERARQNALLFAEEEDGEAGAEDKRSQEEAPGHRRKDAEGAEEGGEEDDDDEEMDPQTIDSLIELSTKLHLPADDVVSIIEEVEEKRKRKKNAPPEPVPPPRAAPAPTHVRSPQPPPPAPARDELPDWNEVLPPWDREEDEVFPPGPYHPFPNYIRPRTLQPPASSRRRHFHHALPPARHHPDLEAQARRAQEEADAEERRLQEQEEMENYIEHVLLHRPEGHHHHHH | soluble |
| MDSLPTSATNGPAGLSAEADAEPHARLTFDLDVDLCVIGAGLAGLSVALEAAQAGLSVAVLESGRIGWGASGHNLGSVTPGYGVPIGDLIARVGLDHASALWALTREGMEIVRARATEEAMPGVALSDGALEVSNVDIGDRLVERLQTLGVDFGSEVEGWPIDKVRDVLRTNRYFHGIHYPTAFQLDGRRYLRGLERLARQAGARIFEETPAVSIDFAGIRKRISTPNARLRASDIVLAGSVHLGAPSPRVAETLLPVWRTAALTAPLGEQLPDAIAFAGSIADTDGVDHYRIVGGDRLLWASGETTFDVAPQRLAGIIRRRIAAVFPQLGQVEIAQTFSAAVGMTVHGMPQVGELRPGLWVASGFGRQGLATTAIAGRLIARGLTHSDERWKLFSPFDLVWAGGTIGRIVGQGVYFATREGALAAGALARYRERAAARTRVRDARAEVKQEERRARVALLRAAEAANVPPPNAPSRRPVPPPSPELEHHHHHH | not soluble |
| MSLNINYPAEYEIGDKVFTCIGAALFGQISAASNCWSNHVGIIIGHNGEDFLVAESRVPLSTITTLSRFIKRSSNQRYAIKRLDAGLTEQQKQRIVEQVPSRLRKLYHTGFKYESSRQFCSKFVFDIYKEALCIPVGEIETFGELLNSNPNAKLTFWKFWFLGSIPWERKTVTPASLWHHPGLVLIHAEGVETPQPELTEAVEGHHHHHH | not soluble |
